Experimental data taken from paper PMC7189476.

Target: human PCNA, purified (human), P12004
Test: SPR; Bio-Rad XPR 36; human PCNA (~350 RU) immobilised on GLC chip by amine coupling; subunits injected at 125 to 2000 nM; 25 mM HEPES pH 7.5, 10% glycerol, 200 mM sodium acetate pH 7.8, 8 mM magnesium acetate, 1 mM DTT, 0.005% Tween-20, 0.2 mg/ml BSA; 20°C; 1:1 (Langmuir) model
Conditions: remark: other sources report otherwise

human PCNA, purified (human), P12004, sequence (P12004 whole entry): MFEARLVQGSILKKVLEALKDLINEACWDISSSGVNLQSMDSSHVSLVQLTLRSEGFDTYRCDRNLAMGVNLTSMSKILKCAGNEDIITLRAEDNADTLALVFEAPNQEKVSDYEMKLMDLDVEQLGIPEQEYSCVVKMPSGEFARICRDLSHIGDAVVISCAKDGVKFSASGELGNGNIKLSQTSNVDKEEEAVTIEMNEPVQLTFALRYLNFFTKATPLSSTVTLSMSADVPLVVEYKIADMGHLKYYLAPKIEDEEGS

Kd: 114 nM
koff: 0.0002 s⁻¹
kon: 1750 M⁻¹ s⁻¹
response units: 90 RU
B1: p125, purified, P28340 1-1107 (natural protein)
chain: MDGKRRPGPGPGVPPKRARGGLWDDDDAPRPSQFEEDLALMEEMEAEHRLQEQEEEELQSVLEGVADGQVPPSAIDPRWLRPTPPALDPQTEPLIFQQLEIDHYVGPAQPVPGGPPPSRGSVPVLRAFGVTDEGFSVCCHIHGFAPYFYTPAPPGFGPEHMGDLQRELNLAISRDSRGGRELTGPAVLAVELCSRESMFGYHGHGPSPFLRITVALPRLVAPARRLLEQGIRVAGLGTPSFAPYEANVDFEIRFMVDTDIVGCNWLELPAGKYALRLKEKATQCQLEADVLWSDVVSHPPEGPWQRIAPLRVLSFDIECAGRKGIFPEPERDPVIQICSLGLRWGEPEPFLRLALTLRPCAPILGAKVQSYEKEEDLLQAWSTFIRIMDPDVITGYNIQNFDLPYLISRAQTLKVQTFPFLGRVAGLCSNIRDSSFQSKQTGRRDTKVVSMVGRVQMDMLQVLLREYKLRSYTLNAVSFHFLGEQKEDVQHSIITDLQNGNDQTRRRLAVYCLKDAYLPLRLLERLMVLVNAVEMARVTGVPLSYLLSRGQQVKVVSQLLRQAMHEGLLMPVVKSEGGEDYTGATVIEPLKGYYDVPIATLDFSSLYPSIMMAHNLCYTTLLRPGTAQKLGLTEDQFIRTPTGDEFVKTSVRKGLLPQILENLLSARKRAKAELAKETDPLRRQVLDGRQLALKVSANSVYGFTGAQVGKLPCLEISQSVTGFGRQMIEKTKQLVESKYTVENGYSTSAKVVYGDTDSVMCRFGVSSVAEAMALGREAADWVSGHFPSPIRLEFEKVYFPYLLISKKRYAGLLFSSRPDAHDRMDCKGLEAVRRDNCPLVANLVTASLRRLLIDRDPEGAVAHAQDVISDLLCNRIDISQLVITKELTRAASDYAGKQAHVELAERMRKRDPGSAPSLGDRVPYVIISAAKGVAAYMKSEDPLFVLEHSLPIDTQYYLEQQLAKPLLRIFEPILGEGRAEAVLLRGDHTRCKTVLTGKVGGLLAFAKRRNCCIGCRTVLSHQGAVCEFCQPRESELYQKEVSHLNALEERFSRLWTQCQRCQGSLHEDVICTSRDCPIFYMRKKVRKDLEDQEQLLRRFGPPGPEAW
